According to paper PMC7592216:

Test system: eIF4E (eukaryotic translation initiation factor 4E, cap-binding protein) (wheat)
Test: EMSA
Conditions: 10 mM HEPES pH 7.5, 20 mM KCl, 1 mM DTT, 3 mM MgCl2, 0.1 ug/ul yeast tRNA, 1 ug/ul BSA, 1 U/ul RNaseOUT, 20 mM Tris-HCl/10% glycerol; 25 min on ice; 10 fmol …

## MTE (MCMV 3' CITE), uncapped
  Kd: 80 nM
